Results on three molecules are retold here after EP0672680A1 (KYOWA HAKKO KOGYO CO., LTD., dated 1995).

Ends that are not written are not given here.

Assay [1] concerns the target T1, protein-farnesyltransferase derived from bovine brains (bovine, UniProt P29702 2-375; P49355 1-437). Put plainly: cell-based or functional assay.
Assay [2] concerns the target T1, protein-farnesyltransferase derived …. Put plainly: cell-based or functional assay. The source holds these as a separate data set.

B1: compound (3) (peptide)
peptide: VYAVTGRGDSPASSGCVLS-OH
modifications: not fully specified (bridges); also: cyclic amide Gly alpha-amino to Asp side chain, places unclear
On to B1, for which, in assay [1], the “IC50, protein-farnesyltransferase-inhibiting activity (transfer of [3H]-farnesyl diphosphate to v-Ki-Ras p21)” value stood at 0.56 µM. Further, the “IC50, protein-farnesyltransferase inhibiting activity in SPA enzyme assay kit (intake of [3H]-farnesyl diphosphate by biotin-lamin-B peptide)” value in assay [2] is 0.42 µM.

B2: compound (4) (peptide)
peptide: VYAVTGRGDSPAFGGRIDRI-OH
modifications: not fully specified (bridges); also: cyclic amide Gly alpha-amino to Asp side chain, places unclear
As for B2, the “IC50, protein-farnesyltransferase-inhibiting activity (transfer of [3H]-farnesyl diphosphate to v-Ki-Ras p21)” value in assay [1] came to 9 µM.

B3: compound (5) (peptide)
peptide: VYAVTGRGDSPAAFGGRIDRIGAA-OH
modifications: not fully specified (bridges); also: cyclic amide Gly alpha-amino to Asp side chain, places unclear
Take B3: in assay [1], the “IC50, protein-farnesyltransferase-inhibiting activity (transfer of [3H]-farnesyl diphosphate to v-Ki-Ras p21)” value stood at 19 µM.
